Test results as given in patent publication US8026342B2, “Compositions and methods for binding sphingosine-1-phosphate” (Lpath, Inc., priority 2006, dated 2011).

System: fibroblasts (Swiss 3T3, murine cardiac, WI-38)
Experiment: S1P-stimulated fibroblast proliferation, migration, collagen expression and myofibroblast differentiation
Assay type: cell-based
Conditions: 1 μg/mL antibody
Procedure: See Example 7, below, for experimental details. […] In these experiments, fibroblasts were serum-starved and then treated with 0, 0.1, 0.5, or 1 μM S1P+/−1 μg/mL SPHINGOMAB for 12-24 hr. […] SPHINGOMAB neutralized each of these S1P effects. SPHINGOMAB reduced perivascular fibrosis in vivo in a murine model of a permanent myocardial infarction (E).
S1P makes profound contributions to wound healing by activating fibroblast migration, proliferation and collagen production; SPHINGOMAB neutralizes these effects. Several studies using multiple types of fibroblasts confirm S1P's ability to promote wound healing: 1) S1P increased Swiss-3T3 fibroblast proliferation as measured by ^3H-thymidine incorporation using standard methods (FIG. 7A); 2) S1P promoted the migration of cardiac fibroblasts in a standard scratch wound healing assay. […] In each of these assays, SPHINGOMAB neutralized S1P's. It is anticipated that ocular fibroblasts would respond similarly to S1P and SPHINGOMAB.

B1: LT1002: murine anti-S1P monoclonal antibody, IgG1 kappa, from hybridoma clone 306D326.26 (antibody, listed as Mus sp., V domains shown)
VH: QAHLQQSDAELVKPGASVKISCKVSGFIFIDHTIHWMKQRPEQGLEWIGCISPRHDITKYNEMFRGKATLTADKSSTTAYIQVNSLTFEDSAVYFCARGGFYGSTIWFDFWGQGTTLTVS
VL: ETTVTQSPASLSMAIGEKVTIRCITTTDIDDDMNWFQQKPGEPPNLLISEGNILRPGVPSRFSSSGYGTDFLFTIENMLSEDVADYYCLQSDNLPFTFGSGTKLEIK
  effect on S1P-stimulated fibroblast proliferation, migration, collagen expression, myofibroblast differentiation: neutralized
